Test results from publication PMC5750076 (2017).

Biological target: mTORΔN-mLST8 mTORΔN (Homo sapiens, UniProt P42345)
Experiment: kinase inhibition assay

B1: PRAS40 114-256 (protein)
chain: not shown
B1 was tested, and the Ki was ~52 µM.
